This experiment concerns the target rVSV-EBOV GPΔβ17-β18 (Zaire ebolavirus (EBOV)) (UniProt Q05320).

In turn, ADI-15946 IgG (antibody) had a neutralization efficiency of rVSV-EBOV GPΔβ17-β18 compared to GPWT of 10 fold.

Source of the values: article PMC6402988.
